Source: US20140087995A1 (published 2014)
Numbered stars: 1 amine (or outer) side, 2 acyl side, 3 side chain; on linkers, the order of the positions; unused ones are H or OH. Bridge positions count the residues as written; N and C are the ends. * marks the point of attachment. C20 diacid = O=C(O)CCCCCCCCCCCCCCCCCCC(=O)*; γGlu = O=C(O)[C@H](CCC(=O)[*:2])N[*:1]

B1: N^α1-[(4S)-4-carboxy-4-(19-carboxynonadecanoylamino)butanoyl]-[Glu14,Arg17,Pro21,Pro26]-h-amylin (peptide)
peptide: {C20 diacid-γGlu}-KCNTATCATQRLAEFLRHSSPNFGAPLSSTNVGSNTY-NH2
modifications: disulfide 2-7
SMILES: CC(C)C[C@H](NC(=O)[C@H](CCCNC(=N)N)NC(=O)[C@H](CCC(N)=O)NC(=O)[C@@H](NC(=O)[C@H](C)NC(=O)[C@@H]1CSSC[C@H](NC(=O)[C@H](CCCCN)NC(=O)CC[C@H](NC(=O)CCCCCCCCCCCCCCCCCCC(=O)O)C(=O)O)C(=O)N[C@@H](CC(N)=O)C(=O)N[C@@H]([C@@H](C)O)C(=O)N[C@@H](C)C(=O)N[C@@H]([C@@H](C)O)C(=O)N1)[C@@H](C)O)C(=O)N[C@@H](C)C(=O)N[C@@H](CCC(=O)O)C(=O)N[C@@H](Cc1ccccc1)C(=O)N[C@@H](CC(C)C)C(=O)N[C@@H](CCCNC(=N)N)C(=O)N[C@@H](Cc1c[nH]cn1)C(=O)N[C@@H](CO)C(=O)N[C@@H](CO)C(=O)N1CCC[C@H]1C(=O)N[C@@H](CC(N)=O)C(=O)N[C@@H](Cc1ccccc1)C(=O)NCC(=O)N[C@@H](C)C(=O)N1CCC[C@H]1C(=O)N[C@@H](CC(C)C)C(=O)N[C@@H](CO)C(=O)N[C@@H](CO)C(=O)N[C@H](C(=O)N[C@@H](CC(N)=O)C(=O)N[C@H](C(=O)NCC(=O)N[C@@H](CO)C(=O)N[C@@H](CC(N)=O)C(=O)N[C@H](C(=O)N[C@@H](Cc1ccc(O)cc1)C(N)=O)[C@@H](C)O)C(C)C)[C@@H](C)O
notes: also called compound 7
B2: N^α1-[(4S)-4-carboxy-4-(19-carboxynonadecanoylamino)butanoyl]-[Glu14,Arg17,Pro21,Pro27,Pro31]-h-amylin (peptide)
peptide: {C20 diacid-γGlu}-KCNTATCATQRLAEFLRHSSPNFGAIPSSTPVGSNTY-NH2
modifications: disulfide 2-7
SMILES: CC[C@H](C)[C@H](NC(=O)[C@H](C)NC(=O)CNC(=O)[C@H](Cc1ccccc1)NC(=O)[C@H](CC(N)=O)NC(=O)[C@@H]1CCCN1C(=O)[C@H](CO)NC(=O)[C@H](CO)NC(=O)[C@H](Cc1c[nH]cn1)NC(=O)[C@H](CCCNC(=N)N)NC(=O)[C@H](CC(C)C)NC(=O)[C@H](Cc1ccccc1)NC(=O)[C@H](CCC(=O)O)NC(=O)[C@H](C)NC(=O)[C@H](CC(C)C)NC(=O)[C@H](CCCNC(=N)N)NC(=O)[C@H](CCC(N)=O)NC(=O)[C@@H](NC(=O)[C@H](C)NC(=O)[C@@H]1CSSC[C@H](NC(=O)[C@H](CCCCN)NC(=O)CC[C@H](NC(=O)CCCCCCCCCCCCCCCCCCC(=O)O)C(=O)O)C(=O)N[C@@H](CC(N)=O)C(=O)N[C@@H]([C@@H](C)O)C(=O)N[C@@H](C)C(=O)N[C@@H]([C@@H](C)O)C(=O)N1)[C@@H](C)O)C(=O)N1CCC[C@H]1C(=O)N[C@@H](CO)C(=O)N[C@@H](CO)C(=O)N[C@H](C(=O)N1CCC[C@H]1C(=O)N[C@H](C(=O)NCC(=O)N[C@@H](CO)C(=O)N[C@@H](CC(N)=O)C(=O)N[C@H](C(=O)N[C@@H](Cc1ccc(O)cc1)C(N)=O)[C@@H](C)O)C(C)C)[C@@H](C)O
notes: also called compound 31
B3: N^α1-[(4S)-4-carboxy-4-(19-carboxynonadecanoylamino)butanoyl]-[Glu14,Arg17,Pro21,Pro27,Arg35]-h-amylin (peptide)
peptide: {C20 diacid-γGlu}-KCNTATCATQRLAEFLRHSSPNFGAIPSSTNVGSRTY-NH2
modifications: disulfide 2-7
SMILES: CC[C@H](C)[C@H](NC(=O)[C@H](C)NC(=O)CNC(=O)[C@H](Cc1ccccc1)NC(=O)[C@H](CC(N)=O)NC(=O)[C@@H]1CCCN1C(=O)[C@H](CO)NC(=O)[C@H](CO)NC(=O)[C@H](Cc1c[nH]cn1)NC(=O)[C@H](CCCNC(=N)N)NC(=O)[C@H](CC(C)C)NC(=O)[C@H](Cc1ccccc1)NC(=O)[C@H](CCC(=O)O)NC(=O)[C@H](C)NC(=O)[C@H](CC(C)C)NC(=O)[C@H](CCCNC(=N)N)NC(=O)[C@H](CCC(N)=O)NC(=O)[C@@H](NC(=O)[C@H](C)NC(=O)[C@@H]1CSSC[C@H](NC(=O)[C@H](CCCCN)NC(=O)CC[C@H](NC(=O)CCCCCCCCCCCCCCCCCCC(=O)O)C(=O)O)C(=O)N[C@@H](CC(N)=O)C(=O)N[C@@H]([C@@H](C)O)C(=O)N[C@@H](C)C(=O)N[C@@H]([C@@H](C)O)C(=O)N1)[C@@H](C)O)C(=O)N1CCC[C@H]1C(=O)N[C@@H](CO)C(=O)N[C@@H](CO)C(=O)N[C@H](C(=O)N[C@@H](CC(N)=O)C(=O)N[C@H](C(=O)NCC(=O)N[C@@H](CO)C(=O)N[C@@H](CCCNC(=N)N)C(=O)N[C@H](C(=O)N[C@@H](Cc1ccc(O)cc1)C(N)=O)[C@@H](C)O)C(C)C)[C@@H](C)O
notes: also called compound 16

Molecular target: T1, human calcitonin receptor (human, UniProt P30988 25-474)
T1 construct: whole, on cells; Used as cell membranes prepared from the transfected BHK cells (Assay VII), not as intact cells; also called hCTR; hCT
T1 sequence (looked up): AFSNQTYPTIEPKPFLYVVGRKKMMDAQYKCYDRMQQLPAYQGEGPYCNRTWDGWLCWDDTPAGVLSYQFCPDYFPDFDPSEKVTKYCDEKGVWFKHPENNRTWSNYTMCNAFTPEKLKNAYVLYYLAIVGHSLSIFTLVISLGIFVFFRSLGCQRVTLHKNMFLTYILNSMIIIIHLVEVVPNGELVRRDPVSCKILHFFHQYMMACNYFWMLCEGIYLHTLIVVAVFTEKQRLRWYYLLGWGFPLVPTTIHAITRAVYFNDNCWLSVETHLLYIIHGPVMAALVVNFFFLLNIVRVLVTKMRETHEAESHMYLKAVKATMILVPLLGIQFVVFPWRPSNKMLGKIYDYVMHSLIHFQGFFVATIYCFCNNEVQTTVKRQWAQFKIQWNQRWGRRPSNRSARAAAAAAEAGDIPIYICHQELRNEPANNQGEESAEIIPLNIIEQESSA
Test: SPA competition against 125I-calcitonin, membranes with human calcitonin receptor (Assay VII)
Method: Membranes were prepared in the following way; the cells were rinsed with PBS and incubated with Versene for approximately 5 min before harvesting. The cells were flushed with PBS and the cell-suspension was centrifuged for 5 min at 1000 rpm. Cells were homogenized (Ultrathurrax) in a buffer containing 20 mM Na-HEPES and 10 mM EDTA (pH 7.4) and centrifuged at 20.000 rpm for 15 min. The resulting pellet was resuspended, homogenized and centrifuged (20.000 rpm, 15 min) in a buffer containing 20 mM Na-HEPES and 0.1 mM EDTA (pH 7.4, buffer 2). The resulting pellet was resuspended in buffer 2 and protein concentration was measured (BCA protein Assay, Pierce). The homogenate was kept cold during the whole procedure. The membranes were kept at −80° C. until use. Assay was performed in a 384 well Optiplate (PerkinElmer) in a total volume of 40 ul. Membranes were mixed with SPA beads. Final concentration of membranes 35 ng/μL final and Final concentration of SPA beads was 0.05 mg/well. Test-compounds were dissolved in DMSO and further diluted in assay buffer (50 mM Hepes, pH 7.4, 1 mM CaCl2, 5 mM MgCl₂, 0.1% OA and 0.02% Tween20). […] The final mixture was incubated for 120 min with shaking at 400 rpm at 25° C. prior to centrifugation (1500 rpm, 10 min). Samples were analyzed on TopCounter™ (Packard). The […] was calculated using (one site binding competition analysis) GraphPad Prism5 as a measure of receptor affinity.

Going from B1 to B2, the IC50 falls from 11.1 nM to 3.26 nM (3.4-fold). The second is the more potent here.

Binder B3 has an IC50 of 17.1 nM.
